Test results reported in patent CN101443359A (GENENTECH INC, dated 2009).

Key:
重组人EGFL7蛋白 = molecular target: T1, 重组人EGFL7蛋白 (human, UniProt Q9UHF1 24-273, limits assumed); assay: SPR, BIAcore 3000, room temperature, polyHis-tagged EGFL7 injected, 1:1 model, mAb stock in 50mM Tris/125mM NaCl
T1 construct: also called hEGFL7; 带polyHis标签的EGFL7
T1 sequence (looked up): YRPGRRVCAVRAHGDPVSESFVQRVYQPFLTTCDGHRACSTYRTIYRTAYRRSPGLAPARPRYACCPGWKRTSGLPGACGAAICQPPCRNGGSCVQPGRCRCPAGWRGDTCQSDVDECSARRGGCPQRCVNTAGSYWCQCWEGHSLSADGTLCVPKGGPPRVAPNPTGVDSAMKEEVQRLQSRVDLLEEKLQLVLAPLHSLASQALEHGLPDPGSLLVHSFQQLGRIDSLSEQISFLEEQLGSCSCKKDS

重组小鼠EGFL7蛋白 = molecular target: T2, 重组小鼠EGFL7蛋白 (mouse, UniProt Q9QXT5 22-275, limits assumed); assay: as above
T2 construct: also called mEGFL7; 带polyHis标签的EGFL7
T2 sequence (looked up): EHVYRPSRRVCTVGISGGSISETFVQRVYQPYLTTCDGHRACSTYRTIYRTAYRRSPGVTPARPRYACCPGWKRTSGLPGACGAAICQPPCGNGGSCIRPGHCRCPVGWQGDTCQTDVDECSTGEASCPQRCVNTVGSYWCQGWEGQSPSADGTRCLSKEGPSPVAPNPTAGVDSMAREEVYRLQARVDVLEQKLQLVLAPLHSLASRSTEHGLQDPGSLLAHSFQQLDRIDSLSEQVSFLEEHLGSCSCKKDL

Kd (重组人EGFL7蛋白): 0.473 nM
Kd (重组小鼠EGFL7蛋白): 0.756 nM
B1: 抗EGFL7鼠单抗4F11.1.8 (antibody, V domains shown)
VH: QIQLVQSGPELKKPGETVKISCKASGHTFTTYGMSWVKQAPGKGLKWMGWINTHSGVPTYADDFKGRFAFSLETSASTAHLQINNLKNEDTATYFCARLGSSAVDYWGQGTTVTVSS
VL: DIVLTQSPASLAVSLGQRATISCKASQSVDYDGDSYMSWYQQKPGQPPKLLIYGASNLESGIPARFSGSGSGTDFTLNIHPVEEEDAATYYCQQNNEDPYTFGGGTKVEIKR
notes: Hybridoma deposit PTA-7343
